Experimental data as given in the DeepSol protein solubility set.

assay: soluble on expression in E. coli; label from the status in PepcDB or PDB records

| Sequence | soluble on expression in E. coli |
| --- | --- |
| MGSDKIHHHHHHMFIGREKELATLNGLYNSDKFEFAVIYGRRRVGKTALISHFIQDKKAIYFMGVESNEKQNLENFSQAIMEYASGIMPGTSFVSFQAAIEYVFKLCENERLVLVIDEYPYVAKASKSMASTLQMLIDKNKDNSKMMLILCGSSMSYMEDNVLAYKAPLYGRRTAQMKILPFDFEDSCKYFNGFSAEDMALIYGIVGGTPQYLLQMNDSMSVEDNIKNVFLNPASAIFEEPENLLKQEVREPAVYNAIITAVATGSSRMSEIATKIGETTSVCSQYMKNLINLGLIRKETPYGEKESRKSIYAIADNMFRFWYRFIPDNNSIISRGATELAYKRIAPNLSDYMGRIFEEICMQYMWKLLLDGESPVEFSNLGRWWGTDPQERIQTEIDIMGDQDKSTVLFGECKWINENVDVKVLEKLKKRSRLFRYENVHLFLFAKKGFTQGCIEEAGKMGNVSLVTYDQIYRYLNNIDLSQ | not soluble |
| MKLTKGKVLLAGCMAMAMSHSVLAQDIKVAIVGAMSGPVAQYGDMQFTGARQAIADINASGGIKGDKLVGVEYDDACDPKQAVAVANKVINDGIRYVIGHLCSSSTQPASDIYEDEGVIMITPAATNADLTTRGYKMIMRTTGLDSDQGPTAAKYIVETIKPKRIAVVHDKQQYGEGLARSVRDSLKEQGAEVVLFEGVTAGDKDFSTLVARLKKENVDFVYFGGYYPEMGQILRQAKQAGLTARFMGPEGVGNSSLSNIAGEASEGMLVTLPKRYDQVPANQPIVDALKAKKLDPTGPFVWTTYAALQSLTTAMERTGSKEPADLANDLKTGKPVETVMGPLSWDDKGDLKGFEFGIFEWHADGSSTAVK | not soluble |
| MEGIPGQRDGVYWLPPAEDGKDPATPWWLCSPLHVLAETRDASQSNWGRLLEWRDNDGHPHRWACPVEMLAASDTAEFRRELVRGGLTMSTSQKARQKLVDYVLSHRQAAATRLRCVSRIGWHDVRYVLPGEVHGEQDGEGVIYQGADSGDFDRAGTLQEWQTHIAAAAAGNSRIVFAISVAFAGVLADMAGESGGGFHFVGTTSKGKTSTLLDPAASVWGNPDQFAKKWRTTQNGLEGLCLGRNDNLLILDELAQIAPADAGGAAYLIANGQAKARMTKEGGNRPAHTWRVMLLSAGEIDLAQHMAEAGKSAKGGQIARLPAIPADAGAGMGTLEQLHQHPSGQAFADAMKAYSRQYYGTAGPAFLAALTPPECMDEIRRDIKDGVTGLIEYLGVPAGAAQEVGRVAARFALVAFAGELATRYGVTGWKPGEAVQAARRCFREWLAENHTGMAADDRALFAQVSGFMQTHSSTRFPPHDAAPEVLARYLNRAGFTFIDEQGTQQFWVLSEPFKKELCRGYTPLIAARSLLRAGWLLAGDTEGNTRRHTRKKRIKALDSATVNVYVLTSTVLEGEELEHHHHHH | not soluble |
| VKNFEWKTIFNWSKNNSMVESLPEGIDKIQIGSGVYNVKSYAEVGKPYGAIYAKTFKRDAEGYILCQLDGSPKEGQDYEYLGCVQADWRGGWNNVFRLGNFSFSVMFDFQKGGKFFSQTSIQSSVDGQSVKSLEGRDADFFSRKILGESDEERYGFMRPQNANTPTANGQIYPDWGRPKGVVLPNCRYDEDVEGLAGQQVLGYCTPERYWMHYTSRDISRFIYDASYVKLREITVSYDLPKKWLRKTPFQTFRVAAVGRNIATLFANTPHGLDPQATSTTGNAQGFERGFNLPSATYGFDIKVSF | not soluble |
| GDAFVGTWKLVSSENFDDYMKEVGVGFATRKDAGMAKPNMIISVNGDLVTIRSESTHKNTEISFKLGVEFDEITADDRKVKSIITLDGGALVQVQKWDGKSTTIKRKRDGDKLVVECVMKGVTSTRVYERA | soluble |
| NKDMSFVIRGNFTYSKNKIDNWEQIEQKYAYQNFSGWPYGIQRGYIALGLFRDEADINNSPIQTFGNYEAGDIKYKDVNGDGRIDIDDQVPLSYDNYPRLMYGFGGEFRYKNLTFNILFKGIGKKDFFYTSEDSGFGYYPFLYGETGNVLSIVANSSNRWIPASYSGDPSTENPNARFPRLSYGKNSNNTQKSTFWKANGQYLRLQEISVGYNLKLKAFSKIGVSSIDLQLVGQDLYVWDKIGGLWDPEQTTKNGRAYPIPATYSLQMYINF | not soluble |
| DGKRVWLSDDELTRFIEQAETPHQRLAFLLAGRVGLRRSEIIEVCPQDLVDGPTGDHIRVWESYAKRDKYREPPVPQEVVTIAETLAYQQDDDEPLLDVAGSTVYRWVRRAADELEEETGDRGWQYLDVHDLRRTWGTYLLEQGVIPSVVMSFGGWEDWDTFRKHYLGEFS | soluble |
| DSTITGASEKAEDAFKASYPAVYRYLEGYKDLLTKRNQAETGIRYEWYALQRWGANYWEDFSKPKIMWKRIGSILRFCYNENGALGLDSTCFAAGKG | not soluble |
| MEKKAFFQQLDERTDIRYTDSGLKIFRLKFPRAHLRLCNVKIDFGSRDVCIRAESGDTLLPYGTAHFLEHLLFWHNGRNLYSDFFAHGALLNAFTTYTDTNFMFTSLPDRLRQTIPILLDALWNHSFDKKIVAQEKAVITSEIQTAHLNHQLSYHYQLISMLSPSSPAAVFPAGRIEDIEALDISDLQKAYKAAYQAHRMTLFLIGGSENTETLLPPHLQLEKRPDYHAERKIIPACPPVLSQKMMLGDEERMEDTWTGLQIGALPGQNDLLSIKLYWDIAARILFQLDSPFFQEIQQTYRLEIDRLSAETYIYEDGGFLILHSQGTHSSAYIDVASYYVTQKKEQVAAWLQYGKDSLTDAIIYDSDYVRKCFEWAAECDRCDCSFLDMYHIIQDMDAQVFLSLIDAMASSNKAIIHVSQKEAIRQ | not soluble |
| MKALVAVSAVAVVALLGVSSAQADPEADPGAGEANYGGPPSSPRLVDHTEWAQWGSLPSLRVYPSQVGRTASRRLGMAAADAAWAEVLALSPEADTAGMRAQFICHWQYAEIRQPGKPSWNLEPWRPVVDDSEMLASGCNPGSPEESF | soluble |
| MSLKTHKKVKIPILLKIAKLPKSSFYEWKHKLENTIDKDKELKEMIVDIFSKSFETYGYRRLKMALKSKGYIVNHKKILRLTKELGVQCIKFRTKNGRYSSYKGTVGKIADNVLKRNFHSLQANKLWCTDVTEFKVNGQKLYLSPIIDLYNDEIISYSIQTNPNLNLTNSMLDKALKKVKNTNGFLIHSDQGFHYQHISWAKKLEENNITQSMSRKGNCLDNAIIENFFGLLKQEIYYGEKYNSVEELTKRIHKYIYWYNNIRIKEKLKGLSPVQFRKQSCYNIEGHHHHHH | not soluble |
| MKHTFKLSLLCSAILLAGCGDNTSSSGTTDKVTFESEVQALLDRGTSISFTIQGANADVPAPSYLLMDTSDGTLGLPTNGDDALTNPRASMNTMDGWSTSMPIVLNFNGDGFAPGMLASGVKVIKINQRLTEWDGKTNPIAKVLVQNQDYVVQANGKSLYVQFADSLDESSEYIFAVTQDVTDVNGEPIGTSSSYAVAKSKQVKYESGDLASVQAVTEAVEGIFGLAQVNPADIVYSSWFSTQSVGDTLAAVKGVTATGFATGANTLNTIYKNDTNENAVDLATAYTMVLGETQDFMTALDSDSDFNKYVSDLDAAKTAIKGLYVQSGASVNVTQGQVRLPHYLEKGANWNMQPMVSAMPSLAKLNAALTDPAEQANMVQQLSSGVFASSPVDVSKLATDPTEQLKLVGSKLYLNDGTQLDSERVITRYSPVPEVKSLENVEFLLFTPQNGVAKDVVIYQHGITSAKENAYAFAFNMVQTGVAVIAIDLPIHGTRSLDEQRSANANVLAYLNLSNLAVARDNLRQSVLDVLGLRASLVVSAQGGLLAGGPLQGFNPMTGSQVK | not soluble |
| ELASDVYNKRIWIKDMQADKGKVQLMKGLYWYFDKDPHLLLGGGTGGGKTFTILSLIYALCRVGEMEICDPKNSDLMALGKLPMFAGKVHTGKTDIVNCLKNAVELMNARFEMMNNSPDYKMGKNYAYYGLKPKFIVIDEFAAFKAELANDYSTDGEVDEYLTQLILKARQCGIFLIVAMQRPDG | not soluble |
| MGSDKIHHHHHHMLTTRKALYYLDKGKTKEAIHLLETCWNQKVTAENKRDIFTATVLLSDVLYQSGERFPEIYQKLMSILEEMQDLEAVDFEREKAKQIFAELDEYFSEVGTFFQGHSLAELWLKFDSENDYKDVYPTPQRVAAIEAELGYKLPKSYIYLMRHTQNGGIVSTGSVPTTEPSSWSENCVAITGIMGIGDCGVSTLNGMHNTNFWTEEWGYPDVGLAIADCPSAGHDMVFLDYRNCGKTGEPAVVHIDQEGDYKILKLADNFEEFILSLYREEY | not soluble |
| MQTNLLSRPTSAKSTSMSDKINHPQLCQWLESVAISRDKQAFTHLFQFFAPKILRIARGKFPNEAQANEVVQDTMSNVWRKAHLYNQDKGAATTWVYTVMRNVTFDMLRKIQGNKEDNLSDDIWPIAESMSIENEIFDDHLEHANLLSVIEELPQAQQDVVKGFYFREMSQEQLAVHLHLPLGTVKSRLRLALGKLKVQLGEKHD | not soluble |
| MTMKEKKLKIDISGVDPICNKSKGDDFYDVVNRQLSRRSFLKGGLGVAVSSFMLSPLMAGCTSSKGTARSSAGLGFQAIAGNRTDVVDVPVGYRAQPFLPWGTPLVPGAGEFKTDASNSALDQARQVGSHHDGMHFFPIDVKEGGASSKEGLLVMNHEYVDPQILHASFSPNAPRPQQEVLKEMMAHGVSVAHIIRKPDGEWQLVEGSPYNRRITASTPMQMSGPVAGHDKLVTRFSPDGTKTRGTINNCSHGHTPWGTYLTCEENWAGCFMNDDDTHPREHERYGVNRENSRYYWETATPGLDETLRFNASSTGSTAADDYRNEPNHFGWIVEIDPFNAKSTPVKRSMLGRFAHEGIVFAPAVEGEPLVAYSGDDSRFEYIYKFVSAKPYYKATASGELLNEGTLYVAQFNDDGTGRWLPLDIENSEFQAKASEAGVGFHSQADVLLNTRLAADVMGATKMDRPEWGAVHPTTKEVYFSLTNNTRRTEVQTNAVNPRAENAYGHIVRWSEDNQQSAESFHWDIFLMGGEAGTRTPNAEGKDLTLTSNNQFACPDGLWFDHRGTLWIQTDMSGELLSEGSFGNNGMYAANPESGELKRFLVGPVDCEITGVVTTPDGKTMFVNVQHPGDRLAPGKFSLEHHHHHH | soluble |
| MMKPVLHFSKLYEVKKLLRKSRLYTVCEESRCPNISECFGNKTATFMILGNRCTRRCAFCNVEKGFPKGVDPEEPYRLLEAVKTLGLKYVVITSVTRDDLPDGGASHFAKCIRVLKENIEDIKVEVLIPDFRGNKKALEVVLKEKPVVLNHNVETVPRLYPSVRIGANYKRSLNILKWSKEIDKSVYTKSALILGFGERKEEVIKVMEDLRSVDCDFLVLGQYYQPSLKHHPVVKYYSEEEFKEFEEIGYEMGFKFVVSKPNARSSYKAFESLLSTLEHHHHHH | not soluble |
| DKCKKVYENYPVSKCQLANQCNYDCKLDKHARSGECFYDEKRNLQCICDYCEY | soluble |
| MLLLIDNYDSFTYNLYQYFCELGTEVMVKRNDELQLTDIEQLAPSHVVISPGPCTPNEAGISLAVIRHFADKLPILGVCLGHQALGQAFGARVVRARQVMHGKTSAICHSGQGVFRGLNQPLTVTRYHSLVIATDSLPGRFELTAWTERGGEMDEIMGIRHRTLPLEGVQFHPESILSEQGHQLLDNFLKN | not soluble |
| MYKVSIICTNYNKAPWISDALDSFLSQVTDFEVEIIVIDDASTDDSREILKSYQKKSSGKIKLLFNETNIGITKTWIKACLYAKGKYIARCDGDDYWTDSFKLQKQVDVLEASKRSRWCNTDFDFVNSQGDLLYANAFSSGHTPLTDTYEKVLALKGMTMASTWLVDADLMRQVNQKINVDTPDDTFDIQLELFQLTQLTYIKDSTTIYRMTTDSDSRPTDTPKMIYRIQKLLDTQLNYLKKYNQVDTKEVSELLLQQDAKQEIRIHELSCFIQELQQTIVDKTKQQETREVELQNVIEEQKNQLSELRQQYHAIINSRQWKYTSKLIAFIRRKK | not soluble |
